Reference: patent US20040138118

Legend:
[1] = tested on: myostatin pro peptide (wild type)
[2] = tested on: D76A mutant myostatin pro peptide
D76A mutant myostatin pro peptide, sequence (chain, as listed by the source D76A): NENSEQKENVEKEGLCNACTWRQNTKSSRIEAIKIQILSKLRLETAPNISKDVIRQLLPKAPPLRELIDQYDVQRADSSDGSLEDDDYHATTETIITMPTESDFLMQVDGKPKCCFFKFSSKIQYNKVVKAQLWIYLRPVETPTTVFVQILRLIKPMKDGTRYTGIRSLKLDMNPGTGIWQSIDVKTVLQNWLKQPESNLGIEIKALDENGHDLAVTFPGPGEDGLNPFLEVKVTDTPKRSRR

## mammalian Tolloid (mTLD)
[1]
  partial proteolytic cleavage of the pro peptide in the latent complex, western blot (FIG. 3E): mTLD was consistently less active than the other three
  proteolytic cleavage of free pro peptide: All four of these proteinases also cleaved pro peptide that had been purified away from the C-terminal dimer
  proteolytic cleavage, SDS-PAGE and western blot with anti-pro peptide antiserum: A discrete proteolytic cleavage product of the pro peptide was detected in each reaction containing one of the four proteases
[2]
  proteolytic cleavage of the mutant pro peptide in the latent complex, western blot (FIGS. 3D and E): completely resistant to proteolysis by each of the four proteinases
